Here are results for 49 sequences from the supplement of paper PMC11780869.

For this series, the system named is Bacillus subtilis. The experiment in a line: cleaved RNA product abundance (RNA/gDNA barcode ratio) relative to median wild-type variant (ratio to wild type); higher = more accumulation of the downstream cleavage product. To be noted: cleavage site: cggR-gapA (positions -7 to +36 mutated). The essentials:
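The B. subtilis chromosome carried reporter mRNAs, truncated aprE or tetM, containing barcoded RNase Y cleavage-site windows mutagenized using oligos with a 9% error rate. After growth in LB at 37°C from OD600 0.0003 to 0.3, cleaved RNA was gel-selected, reverse transcribed and barcode-sequenced next to genomic DNA barcodes, with UMI collapsing. Each construct's RNA:gDNA barcode ratio was scaled to the median construct with the unmutated site. That scaled ratio is reported as cleaved product abundance.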

Setting [1] is: experiment (reporter, strain, medium): exp 4a: truncated aprE reporter, strain BJT201 with 2% xylose (RNase J1 expressed).
Setting [2] is: experiment (reporter, strain, medium): exp 2b: truncated aprE reporter, strain BJT200.
The mark [3] stands for this setting: experiment (reporter, strain, medium): exp 6: tetM reporter, strain 168.

As for “ACAGACGAAGGAGCCGCAAAGAAGTTATTAAGGGATGAATAATCCCTCAATATAAAAATTTCTCACTTATTTAAA”, the “cleaved RNA product abundance” value under setting [1] worked out at 0.688. In the case of “ACAGACGAAGGAGCCGCAAAGAAGTTATTAAGGGATGAATAATCCCTCAATATAAAATATCTCTCACTTATTTAA”, under setting [2], the “cleaved RNA product abundance” value was 0.806. Turning to “ACAGACGAAGGAGCCGCAAAGAAGTTATTAAGGGATGAATAATCCCTCAATATAAACATCTCTCACTTATTTAAA”, the “cleaved RNA product abundance” value is 0.652 under setting [2], 0.702 under setting [1] and 0.847 under setting [3]. For the sequence “ACAGACGAAGGAGCCGCAAAGAAGTTATTAAGGGATGAATAATCCCTCAATATAAACATTTCTCACTTATTTAAA”, under setting [2], the “cleaved RNA product abundance” value is 0.752. Take “ACAGACGAAGGAGCCGCAAAGAAGTTATTAAGGGATGAATAATCCCTCAATATAAACCTCTCTCACTTATTTAAA”: under setting [1], the “cleaved RNA product abundance” value was 0.171. Take “ACAGACGAAGGAGCCGCAAAGAAGTTATTAAGGGATGAATAATCCCTCAATATAAAGATCTCTCACTTATTTAAA”: the “cleaved RNA product abundance” value was 0.666 under setting [2] and 0.627 under setting [1]. Regarding “ACAGACGAAGGAGCCGCAAAGAAGTTATTAAGGGATGAATAATCCCTCAATATAAATAACTCTCACTTATTTAAA”, the “cleaved RNA product abundance” value under setting [2] was determined as 0.903, the “cleaved RNA product abundance” value under setting [1] was determined as 0.849 and the “cleaved RNA product abundance” value under setting [3] was determined as 0.706. On to “ACAGACGAAGGAGCCGCAAAGAAGTTATTAAGGGATGAATAATCCCTCAATATAAATACATCTCACTTATTTAAA”, for which the “cleaved RNA product abundance” value under setting [1] was found to be 0.712.

Consider “ACAGACGAAGGAGCCGCAAAGAAGTTATTAAGGGATGAATAATCCCTCAATATAAATACCTCTCACTTATTTAAA”, for which the “cleaved RNA product abundance” value under setting [2] is 0.69, the “cleaved RNA product abundance” value under setting [1] is 0.56 and the “cleaved RNA product abundance” value under setting [3] is 0.593.

With “ACAGACGAAGGAGCCGCAAAGAAGTTATTAAGGGATGAATAATCCCTCAATATAAATAGCTCTCACTTATTTAAA”, the “cleaved RNA product abundance” value reads like this: under setting [2], 0.637; under setting [1], 0.616; under setting [3], 0.688. As for “ACAGACGAAGGAGCCGCAAAGAAGTTATTAAGGGATGAATAATCCCTCAATATAAATATATCTCACTTATTTAAA”, the “cleaved RNA product abundance” value runs as follows: under setting [2], 0.976; under setting [1], 1.02.

Turning to “ACAGACGAAGGAGCCGCAAAGAAGTTATTAAGGGATGAATAATCCCTCAATATAAATATCACTCACTTATTTAAA”, the “cleaved RNA product abundance” value under setting [1] was 0.917. As to “ACAGACGAAGGAGCCGCAAAGAAGTTATTAAGGGATGAATAATCCCTCAATATAAATATCTCTACTTATTTAAAG”, under setting [2], the “cleaved RNA product abundance” value was 1.09.

As for “ACAGACGAAGGAGCCGCAAAGAAGTTATTAAGGGATGAATAATCCCTCAATATAAATATCTCTCACTATTTAAAG”, the “cleaved RNA product abundance” value turned out to be 1.28 under setting [2] and 1.23 under setting [1].

As to “ACAGACGAAGGAGCCGCAAAGAAGTTATTAAGGGATGAATAATCCCTCAATATAAATATCTCTCACTTATTAAAG”, the “cleaved RNA product abundance” value is, setting by setting: under setting [2], 0.94; under setting [1], 0.971.

“ACAGACGAAGGAGCCGCAAAGAAGTTATTAAGGGATGAATAATCCCTCAATATAAATATCTCTCACTTATTTAAA”: the “cleaved RNA product abundance” value under setting [3] is 1.06. For the sequence “ACAGACGAAGGAGCCGCAAAGAAGTTATTAAGGGATGAATAATCCCTCAATATAAATATCTCTCACTTATTTAAG”, the “cleaved RNA product abundance” value was found to be 0.868 under setting [2] and 0.646 under setting [1]. For “ACAGACGAAGGAGCCGCAAAGAAGTTATTAAGGGATGAATAATCCCTCAATATAAATATCTCTCACTTTTTAAAG”, under setting [1], the “cleaved RNA product abundance” value was determined as 0.879. As to “ACAGACGAAGGAGCCGCAAAGAAGTTATTAAGGGATGAATAATCCCTCAATATAAATATCTCTCATTATTTAAAG”, the “cleaved RNA product abundance” value was 1.06 under setting [2] and 1.05 under setting [1].

For “ACAGACGAAGGAGCCGCAAAGAAGTTATTAAGGGATGAATAATCCCTCAATATAAATATCTCTCCTTATTTAAAG”, the “cleaved RNA product abundance” value under setting [2] was determined as 0.315. On to “ACAGACGAAGGAGCCGCAAAGAAGTTATTAAGGGATGAATAATCCCTCAATATAAATATCTCTCGCTTATTTAAA”, for which the “cleaved RNA product abundance” value under setting [1] was 0.778. Same read-out and setting: then “ACAGACGAAGGAGCCGCAAAGAAGTTATTAAGGGATGAATAATCCCTCAATATAAATATGACTCACTTATTTAAA”, with 1; and “ACAGACGAAGGAGCCGCAAAGAAGTTATTAAGGGATGAATAATCCCTCAATATAAATATGTCTCACTTATTTAAA”, with 0.713. Regarding “ACAGACGAAGGAGCCGCAAAGAAGTTATTAAGGGATGAATAATCCCTCAATATAAATATTTCTCACTTATTTAAA”, the “cleaved RNA product abundance” value reads like this: under setting [2], 1; under setting [1], 0.864. In the case of “ACAGACGAAGGAGCCGCAAAGAAGTTATTAAGGGATGAATAATCCCTCAATATAAATCTCTCTCACTTATTTAAA”, the “cleaved RNA product abundance” value under setting [2] was determined as 0.652, the “cleaved RNA product abundance” value under setting [1] was 0.679 and the “cleaved RNA product abundance” value under setting [3] is 0.701. As to “ACAGACGAAGGAGCCGCAAAGAAGTTATTAAGGGATGAATAATCCCTCAATATAAATGACTCTCACTTATTTAAA”, under setting [1], the “cleaved RNA product abundance” value was 1.3. For the sequence “ACAGACGAAGGAGCCGCAAAGAAGTTATTAAGGGATGAATAATCCCTCAATATAAATGTCTCTCACTTATTTAAA”, the “cleaved RNA product abundance” value stood at 0.498 under setting [2], 0.636 under setting [1] and 0.546 under setting [3]. Regarding “ACAGACGAAGGAGCCGCAAAGAAGTTATTAAGGGATGAATAATCCCTCAATATAAATGTTTCTCACTTATTTAAA”, under setting [1], the “cleaved RNA product abundance” value amounted to 0.369. Consider “ACAGACGAAGGAGCCGCAAAGAAGTTATTAAGGGATGAATAATCCCTCAATATAAATTACTCTCACTTATTTAAA”, for which the “cleaved RNA product abundance” value under setting [1] came out at 0.951. Take “ACAGACGAAGGAGCCGCAAAGAAGTTATTAAGGGATGAATAATCCCTCAATATAAATTATCTCTCACTTATTTAA”: the “cleaved RNA product abundance” value under setting [1] is 0.975. With “ACAGACGAAGGAGCCGCAAAGAAGTTATTAAGGGATGAATAATCCCTCAATATAAATTTCTCTCACTTATTTAAA”, the “cleaved RNA product abundance” value by setting is: under setting [2], 0.72; under setting [1], 0.761; under setting [3], 0.391.

On to “ACAGACGAAGGAGCCGCAAAGAAGTTATTAAGGGATGAATAATCCCTCAATATAAATTTGTCTCACTTATTTAAA”, for which, under setting [2], the “cleaved RNA product abundance” value worked out at 0.98. Regarding “ACAGACGAAGGAGCCGCAAAGAAGTTATTAAGGGATGAATAATCCCTCAATATAACCATCTCTCACTTATTTAAA”, the “cleaved RNA product abundance” value under setting [1] stood at 0.296. As for “ACAGACGAAGGAGCCGCAAAGAAGTTATTAAGGGATGAATAATCCCTCAATATAACTATCTCTCACTTATTTAAA”, the “cleaved RNA product abundance” value under setting [2] came to 0.201, the “cleaved RNA product abundance” value under setting [1] came out at 0.146 and the “cleaved RNA product abundance” value under setting [3] was 0.267. On to “ACAGACGAAGGAGCCGCAAAGAAGTTATTAAGGGATGAATAATCCCTCAATATAAGTATCTCTCACTTATTTAAA”, for which the “cleaved RNA product abundance” value under setting [2] was 0.397, the “cleaved RNA product abundance” value under setting [1] stood at 0.42 and the “cleaved RNA product abundance” value under setting [3] was determined as 0.462.

Turning to “ACAGACGAAGGAGCCGCAAAGAAGTTATTAAGGGATGAATAATCCCTCAATATAATGATCTCTCACTTATTTAAA”, the “cleaved RNA product abundance” value under setting [1] amounted to 0.348. On the same count and under the same terms, then “ACAGACGAAGGAGCCGCAAAGAAGTTATTAAGGGATGAATAATCCCTCAATATAATTACCTCTCACTTATTTAAA”, with 0.435. As for “ACAGACGAAGGAGCCGCAAAGAAGTTATTAAGGGATGAATAATCCCTCAATATAATTATCTCTCACTTATTTAAA”, the “cleaved RNA product abundance” value under setting [2] stood at 0.673, the “cleaved RNA product abundance” value under setting [1] came to 0.491 and the “cleaved RNA product abundance” value under setting [3] came out at 0.338. Regarding “ACAGACGAAGGAGCCGCAAAGAAGTTATTAAGGGATGAATAATCCCTCAATATACATATCTCTCACTTATTTAAA”, the “cleaved RNA product abundance” value reads like this: under setting [2], 0.933; under setting [1], 0.838; under setting [3], 0.498. As to “ACAGACGAAGGAGCCGCAAAGAAGTTATTAAGGGATGAATAATCCCTCAATATACATCTCTCTCACTTATTTAAA”, the “cleaved RNA product abundance” value under setting [1] stood at 0.206. With “ACAGACGAAGGAGCCGCAAAGAAGTTATTAAGGGATGAATAATCCCTCAATATAGATATCTCTCACTTATTTAAA”, the “cleaved RNA product abundance” value was 0.711 under setting [2] and 0.683 under setting [1]. In the case of “ACAGACGAAGGAGCCGCAAAGAAGTTATTAAGGGATGAATAATCCCTCAATATATAAATCTCTCACTTATTTAAA”, the “cleaved RNA product abundance” value under setting [1] was determined as 1.13. On the same count and under the same terms, the result for “ACAGACGAAGGAGCCGCAAAGAAGTTATTAAGGGATGAATAATCCCTCAATATATAGATCTCTCACTTATTTAAA” reads 0.77.

For “ACAGACGAAGGAGCCGCAAAGAAGTTATTAAGGGATGAATAATCCCTCAATATATATAACTCTCACTTATTTAAA”, the “cleaved RNA product abundance” value is, setting by setting: under setting [2], 0.679; under setting [1], 0.429. As for “ACAGACGAAGGAGCCGCAAAGAAGTTATTAAGGGATGAATAATCCCTCAATATATATATCTCTCACTTATTTAAA”, the “cleaved RNA product abundance” value runs as follows: under setting [2], 0.874; under setting [1], 0.885; under setting [3], 0.832. Take “ACAGACGAAGGAGCCGCAAAGAAGTTATTAAGGGATGAATAATCCCTCAATATATATATTTCTCACTTATTTAAA”: under setting [1], the “cleaved RNA product abundance” value turned out to be 0.817. Take “ACAGACGAAGGAGCCGCAAAGAAGTTATTAAGGGATGAATAATCCCTCAATATATATTTCTCTCACTTATTTAAA”: the “cleaved RNA product abundance” value under setting [1] turned out to be 0.561. As for “ACAGACGAAGGAGCCGCAAAGAAGTTATTAAGGGATGAATAATCCCTCAATATCAATATCTCTCACTTATTTAAA”, the “cleaved RNA product abundance” value is 0.126 under setting [2], 0.103 under setting [1] and 0.216 under setting [3]. On the same counts, the results for “ACAGACGAAGGAGCCGCAAAGAAGTTATTAAGGGATGAATAATCCCTCAATATGAATATCTCTCACTTATTTAAA” are 0.153, 0.102 and 0.0685.
